Data on 16 molecules can be found in PMC4019986, “Structural and biochemical characterization of the KLHL3–WNK kinase interaction important in blood pressure regulation” (Biochemical Journal, 2014).

Test [1] concerns the target T1, GST–KLHL3^290–587 (Homo sapiens, UniProt Q9UH77).
T1 construct: the isolated C-terminal Kelch domain (residues 290–587); made in house; host or cells: E. coli BL21
T1 sequence (Q9UH77 290-587): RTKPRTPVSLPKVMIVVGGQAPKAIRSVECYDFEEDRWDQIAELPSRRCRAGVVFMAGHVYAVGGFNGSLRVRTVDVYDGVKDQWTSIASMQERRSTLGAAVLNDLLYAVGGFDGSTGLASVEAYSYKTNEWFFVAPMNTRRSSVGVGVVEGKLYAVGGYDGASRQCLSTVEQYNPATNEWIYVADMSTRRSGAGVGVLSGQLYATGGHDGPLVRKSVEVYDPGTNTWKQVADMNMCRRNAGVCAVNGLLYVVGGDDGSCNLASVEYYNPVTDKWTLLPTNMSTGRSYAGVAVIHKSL
As to the kind of experiment: Fluorescence polarization binding of Lumio-Green-labelled degron peptides to the KLHL3 Kelch domain.

Test [2] concerns the target core 11-residue WNK4 peptide (WNK4 WT 557–567), Lumio-Green-labelled. Kind of test: fluorescence polarisation; Kelch protein titrated against 10 nM Lumio-Green-labelled peptide; 25°C; 50 mM Tris/HCl pH 7.5, 150 mM NaCl, 2 mM DTT; one-site specific binding with Hill slope; duplicates, at least 12 points per curve.
Test [3] concerns the target T2, GST–KLHL3^290–587 (human, UniProt Q9UH77-1 290-587).
T2 construct: KLHL3, human, NM_017415.2, C-terminal Kelch domain, residues 290-587; pGEX6P-1, PreScission site between GST and KLHL3; eluted with glutathione as the GST fusion; also called isolated KLHL3 Kelch domain; GST-KLHL3 290-587 wild-type; source: E. coli BL21, purified (glutathione–Sepharose); not shown: GST, N-terminal, kept
T2 sequence (looked up): T1 sequence (Q9UH77 290-587)
Described as above. The note with it: both partners purified.

Test [4] addresses T3, KEAP1 full-length protein (residues 1–624) (UniProt Q14145 1-624).
T3 construct: KEAP1, NM_203500.1, amplified from EST IMAGE 3163902, residues 1-624; NM_203500.1 is a human transcript as far as I recall; also called Kelch-like enoyl-CoA hydratase-associated protein 1; source: Sf21 cells, purified (ampicillin–Sepharose, TEV protease release, size-exclusion chromatography); not shown: DAC, N-terminal, cleaved
Described as above. The note with it: both partners purified.

In test [5] the target is T4, human KLHL3 Kelch domain (residues 298–587) (human, UniProt Q9UH77-1 298-587).
T4 construct: KLHL3, human, NM_017415.2, Kelch domain, residues 298-587; Vector pNIC28-Bsa4 (GenBank EF198106); The results speak of unmodelled residues 296–299, which lie partly before the stated limit; also called KLHL3 (crystallization construct); source: E. coli BL21(DE3)-R3-pRARE, purified (Ni-Sepharose, rTEV cleavage, HiTrap Q, Superdex 200); not shown: His6, N-terminal, cleaved
T4 sequence (looked up): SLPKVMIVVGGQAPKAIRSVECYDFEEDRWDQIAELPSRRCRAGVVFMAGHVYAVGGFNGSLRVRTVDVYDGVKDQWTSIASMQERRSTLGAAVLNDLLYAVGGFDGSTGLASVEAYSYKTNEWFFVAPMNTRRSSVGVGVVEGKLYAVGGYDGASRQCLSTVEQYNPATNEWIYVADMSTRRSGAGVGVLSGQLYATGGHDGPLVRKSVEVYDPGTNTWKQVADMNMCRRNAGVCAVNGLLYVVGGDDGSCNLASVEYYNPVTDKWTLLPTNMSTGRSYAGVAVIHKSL
As to the kind of experiment: crystal structure; KLHL3 Kelch domain (9 mg/ml) with 2 mM WNK4 11-mer peptide; sitting drop, 0.1 M acetate pH 4.3, 0.2 M ammonium sulfate, 25–35% PEG 4000. As to conditions: both partners purified.

Test [6] deals with T5, human KLHL2 Kelch domain (residues 294–593) (human, UniProt O95198 294-593).
T5 construct: KLHL2, human, IMAGE clone 4791972, Kelch domain, residues 294-593; Vector pNIC28-Bsa4 (GenBank EF198106); The results speak of unmodelled residues 292–305, which lie partly before the stated limit; also called KLHL2 (crystallization construct); Mayven; source: E. coli BL21(DE3)-R3-pRARE, purified (Ni-Sepharose, rTEV cleavage, HiTrap SP, Superdex 200); not shown: His6, N-terminal, cleaved
T5 sequence (looked up): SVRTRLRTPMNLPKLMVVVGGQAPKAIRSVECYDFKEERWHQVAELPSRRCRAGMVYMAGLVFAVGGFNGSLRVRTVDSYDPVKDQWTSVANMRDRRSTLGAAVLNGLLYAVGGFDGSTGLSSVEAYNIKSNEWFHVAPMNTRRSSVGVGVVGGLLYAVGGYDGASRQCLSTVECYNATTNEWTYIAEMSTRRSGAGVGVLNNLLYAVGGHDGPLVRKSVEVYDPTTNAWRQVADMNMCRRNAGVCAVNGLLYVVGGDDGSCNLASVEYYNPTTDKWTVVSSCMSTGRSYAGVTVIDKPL
Kind of test: crystal structure; KLHL2 Kelch domain (9 mg/ml) with 2 mM WNK4 11-mer peptide; sitting drop, 20°C, 0.1 M Hepes pH 7.2, 2.5 M ammonium sulfate, 2% PEG 400. As to conditions: both partners purified.

Setting [7] is: disease-causing mutation within the WNK4 degron peptide, Figure 1C.

“And” between values parts separate entries of the source, which are not always exact repeats. Identical values can stand only once. Like-named read-outs stand apart in the source and are kept apart here. Ends that are not written are not given here. Peptide text beside a SMILES is read from it. * marks the point of attachment. X1 = N[C@H]1CS[As]2SC[C@H](NC1=O)C(=O)N1CCC[C@H]1C(=O)NCC(=O)N[C@H]1CS[As](SC[C@@H](C(=O)*)NC1=O)c1c(O)ccc3c1Oc1c(ccc(O)c12)C31OC(=O)c2ccccc21 Where only a bound is given, the exact number is not on record here.

T3 sequence (Q14145 whole entry, the tested form may be a part): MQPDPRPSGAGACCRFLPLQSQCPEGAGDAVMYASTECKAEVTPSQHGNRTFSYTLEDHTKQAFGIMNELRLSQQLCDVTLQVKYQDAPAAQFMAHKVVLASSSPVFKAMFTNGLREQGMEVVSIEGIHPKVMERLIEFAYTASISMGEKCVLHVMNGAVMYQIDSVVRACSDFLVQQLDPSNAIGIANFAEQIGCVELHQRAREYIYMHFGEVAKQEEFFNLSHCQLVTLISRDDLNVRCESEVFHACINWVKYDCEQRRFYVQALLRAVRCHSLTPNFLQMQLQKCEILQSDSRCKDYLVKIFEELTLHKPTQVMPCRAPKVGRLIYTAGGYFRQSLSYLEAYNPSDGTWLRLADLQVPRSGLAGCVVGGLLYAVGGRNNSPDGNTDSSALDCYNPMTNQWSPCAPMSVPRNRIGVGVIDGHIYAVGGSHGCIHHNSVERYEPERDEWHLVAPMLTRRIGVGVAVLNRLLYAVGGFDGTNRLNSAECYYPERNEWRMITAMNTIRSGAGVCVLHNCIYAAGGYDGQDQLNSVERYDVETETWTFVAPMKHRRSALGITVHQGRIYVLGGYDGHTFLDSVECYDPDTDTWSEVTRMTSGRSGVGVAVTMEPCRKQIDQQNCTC

As for “WNK4 E562K 549–567: 19-residue WNK4 degron peptide with Gordon's syndrome mutation E562K, Lumio Green labelled (GPPSVFPPEPEEPKADQHQ; not fully specified (N-terminus); also: Lumio Green fluorophore on N-terminal linker CCPGCCGGGG)”, the “binding to KLHL3 in words” value with GST–KLHL3^290–587 [1] (setting [7]) is “virtually abolished binding”.

Take “WNK4 D564A 549–567: 19-residue WNK4 degron peptide with Gordon's syndrome mutation D564A, Lumio Green labelled (GPPSVFPPEPEEPEAAQHQ; not fully specified (N-terminus); also: Lumio Green fluorophore on N-terminal linker CCPGCCGGGG)”: the “reduction in binding relative to wild-type WNK4 degron peptide” value with GST–KLHL3^290–587 [1] (setting [7]) is given as 10 fold.

For the molecule `CC(C)[C@H](NC(=O)[C@H](CO)NC(=O)[C@@H]1CCCN1C(=O)[C@@H]1CCCN1C(=O)CNC(=O)CNC(=O)CNC(=O)CNC(=O)CNC(=O)[C@@H]1CS[As]2SC[C@H](NC(=O)CNC(=O)[C@@H]3CCCN3C(=O)[C@@H]3CS[As](SC[C@H](N)C(=O)N3)c3c(O)ccc4c3Oc3c(ccc(O)c32)C42OC(=O)c3ccccc32)C(=O)N1)C(=O)N[C@@H](Cc1ccccc1)C(=O)N1CCC[C@H]1C(=O)N1CCC[C@H]1C(=O)N[C@@H](CCC(=O)O)C(=O)N1CCC[C@H]1C(=O)N[C@@H](CCC(=O)O)C(=O)N[C@@H](CCC(=O)O)C(=O)N1CCC[C@H]1C(=O)N[C@@H](CCC(=O)O)C(=O)N[C@@H](C)C(=O)N[C@@H](CC(=O)O)C(=O)N[C@@H](CCC(=O)O)C(=O)N[C@@H](Cc1cnc[nH]1)C(=O)N[C@@H](CCC(N)=O)C(=O)O` (stereo partly shown) [WNK4 Q565E 549–567] (X1-GGGGGPPSVFPPEPEEPEADEHQ-OH; N-terminus and C-terminus assumed), at GST–KLHL3^290–587 [1], the “reduction in binding relative to wild-type WNK4 degron peptide” value is reported as 10 fold.

As to “GST–KLHL2^298–593 (from UniProt O95198 298-593) (domain or fragment)”, in test [2], the Kd was 260 nM.

B1: NRF2 degron peptide (NRF2 WT 74–84) (peptide)
peptide: CCPGCCGGGGLQLDEETGEFL
modifications: cysteine pairing not given here; also: Lumio Green fluorophore on N-terminal linker CCPGCCGGGG
notes: nuclear factor-erythroid 2-related factor 2 (NRF2), degron motif, residues 74-84; also called NRF2 degron motif; source: synthetic peptide (GL Biochem)
B1: in the test with GST–KLHL3^290–587 [3], the Kd was more than 50000 nM.

B2: WNK4 WT 554–564 peptide (peptide)
peptide: FPPEPEEPEAD
modifications: not fully specified (N-terminus); also: Lumio Green fluorophore on N-terminal linker CCPGCCGGGG
notes: WNK4 acidic degron, residues 554-564; source: synthetic peptide (GL Biochem)
Regarding B2, in the test with GST–KLHL3^290–587 [3], the Kd was more than 50000 nM.

B3: WNK4 E562K 549–567 peptide (peptide)
peptide: GPPSVFPPEPEEPKADQHQ
modifications: not fully specified (N-terminus); also: Lumio Green fluorophore on N-terminal linker CCPGCCGGGG
notes: source: synthetic peptide (GL Biochem)
In the case of B3, in the test with GST–KLHL3^290–587 [3], the Kd is more than 50000 nM.

B4: WNK4 WT 555–567 peptide (peptide)
peptide: PPEPEEPEADQHQ
modifications: not fully specified (N-terminus); also: Lumio Green fluorophore on N-terminal linker CCPGCCGGGG
notes: WNK4 acidic degron, residues 555-567; source: synthetic peptide (GL Biochem)
As to B4, the affinity with GST–KLHL3^290–587 [3], expressed as Kd, was 910 nM. In other words, the sub-micromolar range.

B5: WNK4 WT 556–567 peptide (peptide)
peptide: PEPEEPEADQHQ
modifications: not fully specified (N-terminus); also: Lumio Green fluorophore on N-terminal linker CCPGCCGGGG
notes: WNK4 acidic degron, residues 556-567; source: synthetic peptide (GL Biochem)
With B5, in the test with GST–KLHL3^290–587 [3], the Kd turned out to be 290 nM.

B6: WNK4 Q565E 549–567 peptide (peptide)
peptide: GPPSVFPPEPEEPEADEHQ
modifications: not fully specified (N-terminus); also: Lumio Green fluorophore on N-terminal linker CCPGCCGGGG
notes: as for B3
For B6, binding with GST–KLHL3^290–587 [3] was put at a Kd of 6210 nM.

B7: WNK4 WT 554–567 peptide (peptide)
peptide: FPPEPEEPEADQHQ
modifications: not fully specified (N-terminus); also: Lumio Green fluorophore on N-terminal linker CCPGCCGGGG
notes: WNK4 acidic degron, residues 554-567; source: synthetic peptide (GL Biochem)
In turn, B7 displayed a Kd in the test with GST–KLHL3^290–587 [3] of 710 nM.

B8: WNK4 WT 554–566 peptide (peptide)
peptide: FPPEPEEPEADQH
modifications: not fully specified (N-terminus); also: Lumio Green fluorophore on N-terminal linker CCPGCCGGGG
notes: WNK4 acidic degron, residues 554-566; source: synthetic peptide (GL Biochem)
Molecule B8 had a Kd in the test with GST–KLHL3^290–587 [3] of 7810 nM.

B9: WNK4 D564A 549–567 peptide (peptide)
peptide: GPPSVFPPEPEEPEAAQHQ
modifications: not fully specified (N-terminus); also: Lumio Green fluorophore on N-terminal linker CCPGCCGGGG
notes: as for B3
In the test with GST–KLHL3^290–587 [3], B9 showed a Kd of more than 50000 nM.

B10: WNK3 degron peptide (WNK3 WT 537–547) (peptide)
peptide: ECEETEVDQHV
modifications: not fully specified (N-terminus); also: Lumio Green fluorophore on N-terminal linker CCPGCCGGGG
notes: also called WNK3 motif; source: synthetic peptide (GL Biochem)
For the molecule B10, the Kd was more than 50000 nM in test [4] and 840 nM with GST–KLHL3^290–587 [3].

B11: core 11-residue WNK4 peptide (WNK4 WT 557–567), Lumio-Green-labelled (peptide)
peptide: EPEEPEADQHQ
modifications: not fully specified (N-terminus); also: Lumio Green fluorophore on N-terminal linker CCPGCCGGGG
notes: WNK4 acidic degron, residues 557-567; also called WNK1/4 degron; 11-residue WNK4 (557–567) degron peptide; source: synthetic peptide (GL Biochem)
Consider B11, for which the Kd in test [4] was more than 50000 nM; with GST–KLHL3^290–587 [3], 690 nM and 350 nM and 510 nM.

B12: 11-residue WNK4 peptide (EPEEPEADQHQ) used for crystallization (peptide)
peptide: EPEEPEADQHQ
notes: WNK4 acidic degron, residues 557-567; the sentence 'All peptides contained an N-terminal linker' stands in the fluorescence polarization methods; also called WNK4 11-mer peptide; 11-residue WNK4 degron motif; source: synthetic peptide (GL Biochem)
For the molecule B12, the binding result in test [5] and in test [6] was “binds” in each case.
